Measurements from US20120276102A1 (Pfizer, published 2012).
Substitutions are numbered along the chain they refer to.

T1: human IL-2Rβ (human, UniProt P14784 27-239)
T1 sequence (looked up): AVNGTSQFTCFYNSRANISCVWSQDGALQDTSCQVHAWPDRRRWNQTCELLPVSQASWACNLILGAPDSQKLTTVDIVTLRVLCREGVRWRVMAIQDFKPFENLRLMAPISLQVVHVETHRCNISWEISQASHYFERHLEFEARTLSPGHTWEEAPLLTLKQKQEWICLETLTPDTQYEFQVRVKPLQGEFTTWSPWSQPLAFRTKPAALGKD

T2: human gamma (γ) common chain expressed on CHO cells (human, UniProt P31785 23-369)
T2 construct: whole, on cells; Control protein; also called human IL-2R-γ common subunit; human γ-common
T2 sequence (looked up): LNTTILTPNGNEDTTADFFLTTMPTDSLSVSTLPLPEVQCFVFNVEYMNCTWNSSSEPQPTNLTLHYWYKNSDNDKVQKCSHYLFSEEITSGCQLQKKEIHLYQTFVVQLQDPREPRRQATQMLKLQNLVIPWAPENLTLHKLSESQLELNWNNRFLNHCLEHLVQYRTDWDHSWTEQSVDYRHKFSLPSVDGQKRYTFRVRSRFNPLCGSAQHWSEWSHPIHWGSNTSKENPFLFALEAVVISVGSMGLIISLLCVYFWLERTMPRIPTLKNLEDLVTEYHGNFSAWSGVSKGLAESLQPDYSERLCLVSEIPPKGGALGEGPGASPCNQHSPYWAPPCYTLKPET

B1: AbG (antibody, IgG1, V domains shown)
VH: QVQLQESGPGLVKPSETLSLTCAVSGYSISSGYYWGWIRQPPGKGLEWIGSISHTGNTYYNPPLKSRVTISVDTSKNQFSLKLSSVTAADTAVYYCARGGGISRPEYWGQGTLVTVSS
VL: SSELTQDPAVSVALGQTVRITCQGDSLRTYYASWYQQKPGQAPVLVIYGKHKRPSGIPDRFSGSSSGNTASLTITGAQAEDEADYYCVTRSVKGNPHVLFGGGTQLTVL
notes: As for AbA: IgG1/lambda, CDR3 graft, residue limits derived; also called VHP/VL18
B2: AbB (antibody, IgG1, V domains shown)
VH: B1 VH
VL: B1 VL with T89S, S91A, K93V
notes: As for AbA: IgG1/lambda, CDR3 graft, residue limits derived; also called VHP/VL3
B3: AbC (antibody, IgG1, V domains shown)
VH: B1 VH
VL: B1 VL with V88S, T89S, V92R, K93H
notes: As for AbA: IgG1/lambda, CDR3 graft, residue limits derived; also called VHP/VL11
B4: AbE (antibody, IgG1, V domains shown)
VH: B1 VH
VL: B1 VL with V88M, T89A, V92R
notes: As for AbA: IgG1/lambda, CDR3 graft, residue limits derived; also called VHP/VL14
B5: AbF (antibody, IgG1, V domains shown)
VH: B1 VH
VL: B1 VL with V88S, V92R
notes: As for AbA: IgG1/lambda, CDR3 graft, residue limits derived; also called VHP/VL17
B6: AbA (antibody, V domains shown)
VH: B1 VH
VL: B1 VL with T89A, K93V
notes: Human IgG1/lambda, transiently expressed; also called VHP/VL2
B7: AbK (antibody, IgG1, V domains shown)
VH: B1 VH with G99F, G100M, I102F, S103G
VL: B1 VL with T89S, S91A, K93V
notes: As for AbA: IgG1/lambda, CDR3 graft, residue limits derived; also called VH3/VL3

Each binder was assayed against T1, human IL-2Rβ (assay: SPR, Ab captured).
Protocol: (§1) The specificity of binding of a subset of transiently expressed anti-IL-21R binding proteins (here antibodies) was tested on a BIACORE™ 2000 surface plasmon resonance instrument. Anti-human-IgG, anti-murine immunoglobulin antibodies, and murine IL-21R-H/F were immobilized onto a research-grade carboxymethyl-dextran chip (CM5) using standard amine coupling. The sensor chip surface was activated with EDC/NHS for 7 min at a flow rate of 20 μl/min. The first flow cell was used as reference surface to correct for bulk refractive index, matrix effects, and nonspecific binding. […] Remaining activated groups were blocked with 1.0 M ethanolamine (pH 8.0). The molecular weights of the anti-human IgG and the anti-murine IgG were both 150 kD, and the molecular weight of the IL-21R monomer was 27 kD.
(§2) Conditioned media containing anti-IL-21R antibodies and antibody controls (murine anti-human IL-2Rβ and murine anti-human IL-4R(R&D Systems, Minneapolis, Minn.); human anti-human IL-13 (Wyeth, Cambridge, Mass.)) were diluted in HBS/EP buffer supplemented with 0.2% bovine serum and injected onto all four flow cells of the BIACORE™ chip, capturing 500-700 (RU) of antibody on the species-appropriate capture antibody. Following a 5 sec washing period, 50 nM solutions of a positive control protein (murine IL-21R-H/F), two human proteins related to IL-21R (human IL-2Rβ and human sIL-4R(R&D Systems)), or an unrelated His/FLAG-tagged protein (human IL-13-H/F) were injected over the captured antibodies on the chip. The association and dissociation phases were monitored for 120 and 180 sec, respectively, followed by two 5 μl injections of glycine (pH 1.5) to regenerate a fully active capturing surface. All binding experiments were done at 25° C. in HBS/EP buffer. Blank and buffer effects were subtracted for each sensorgram using double referencing.

B1: no binding (tested: 50 nM).
B2: no binding (tested: 50 nM).
B3: no binding (tested: 50 nM).
B4: no binding (tested: 50 nM).
B5: no binding (tested: 50 nM).
B6: no binding (tested: 50 nM).
B7: no binding (tested: 50 nM).

The binders below were run against T3, human soluble IL-4R (human, UniProt P24394 26-232, limits assumed) (assay: SPR, Ab captured).
T3 construct: also called human sIL-4R
Protocol: as §1, §2

B1: no binding (tested: 50 nM).
B2: no binding (tested: 50 nM).
B3: no binding (tested: 50 nM).
B4: no binding (tested: 50 nM).
B5: no binding (tested: 50 nM).
B6: no binding (tested: 50 nM).
B7: no binding (tested: 50 nM).

What follows are binders tested against T4, human IL-13-His/FLAG (human, UniProt P35225 35-146, limits assumed) (assay: SPR, Ab captured).
T4 construct: Unrelated His/FLAG-tagged control; also called human IL-13-H/F
T4 sequence (P35225 35-146 limits assumed): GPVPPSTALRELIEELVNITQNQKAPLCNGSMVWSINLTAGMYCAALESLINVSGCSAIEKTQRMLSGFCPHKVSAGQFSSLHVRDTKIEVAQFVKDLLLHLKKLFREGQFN
Protocol: as §1, §2

B1: no binding (tested: 50 nM).
B2: no binding (tested: 50 nM).
B3: no binding (tested: 50 nM).
B4: no binding (tested: 50 nM).
B5: no binding (tested: 50 nM).
B6: no binding (tested: 50 nM).
B7: no binding (tested: 50 nM).

What follows are binders tested against T5, human IL-21R expressed on cells (human, UniProt Q9HBE5 20-538) (assay: cell ELISA, CHO cells).
T5 construct: also called human IL-21R-BaF3; human IL-21R-TF1
T5 sequence (Q9HBE5 20-538 limits assumed): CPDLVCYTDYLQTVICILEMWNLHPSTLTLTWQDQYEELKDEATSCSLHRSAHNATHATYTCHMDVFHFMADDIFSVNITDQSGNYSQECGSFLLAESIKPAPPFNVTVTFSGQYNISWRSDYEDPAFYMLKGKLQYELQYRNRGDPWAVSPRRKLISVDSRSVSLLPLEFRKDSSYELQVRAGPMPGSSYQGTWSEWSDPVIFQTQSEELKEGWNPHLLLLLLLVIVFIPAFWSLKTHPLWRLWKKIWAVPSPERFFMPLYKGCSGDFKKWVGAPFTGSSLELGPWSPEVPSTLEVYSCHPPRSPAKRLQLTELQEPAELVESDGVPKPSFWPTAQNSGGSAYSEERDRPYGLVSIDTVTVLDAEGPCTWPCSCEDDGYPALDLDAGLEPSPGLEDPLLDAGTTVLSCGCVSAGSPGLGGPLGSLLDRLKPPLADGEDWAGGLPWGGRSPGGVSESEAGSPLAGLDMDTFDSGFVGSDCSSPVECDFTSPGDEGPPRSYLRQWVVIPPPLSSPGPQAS
Protocol: (§3) A subset of binding proteins was tested for binding to rat, cynomolgus monkey, human IL-21R, or human IL-2R-γ common subunit expressed transiently on the surfaces of CHO-PA-Dukx cells. Cells were transfected 48 hr prior to the assay. On the day of the assay, cells were washed gently 5× in PBS containing 0.9 mM CaCl₂ and 0.45 mM MgCl₂ (PBS/CaMg) on an automated plate washer (Titertek, Huntsville, Ala.), and blocked for 1 hr at RT in PBS/CaMg/5% nonfat dry milk. Conditioned media from transiently expressed anti-IL-21R IgGs were serially diluted in blocking buffer and added to the cells in the blocked plates for 1 hr at RT. Cells were washed 5× with PBS/CaMg and then incubated with horseradish peroxidase-conjugated anti-human IgG for 1 hr at RT. Cells were then washed 10× in PBS/CaMg and all of the wash buffer was removed. Cells were incubated with 100 μl TMB until the color reaction reached saturation, stopped with 100 μl of 0.18 M H₂SO₄, and read at A450 on a Perkin Elmer ENVISION™ plate reader.

Compared with B1, B2 is lower in “A450 (13 nM Ab)” value: 1.35 A450 for the first, 1.15 A450 for the second.

Going from B3 to B4, the “A450 (13 nM Ab)” value rises from 1.22 A450 to 1.26 A450.

Going from B5 to B6, the “A450 (13 nM Ab)” value falls from 1.35 A450 to 1.2 A450.

In the case of B7, the “A450 (13 nM Ab)” value is reported as 1.36 A450.

Each binder was assayed against T6, rat IL-21R expressed on cells (rat) (assay: cell ELISA, CHO cells).
T6 construct: whole, on cells
Protocol: as §3

Compared with B1, B2 is lower in “A450 (13 nM Ab)” value: 1.11 A450 for the first, 1.09 A450 for the second.

First: B3
Second: B4
The “A450 (13 nM Ab)” value of the first is lower: 0.999 A450 for the first, 1.11 A450 for the second.

First: B5
Second: B6
The “A450 (13 nM Ab)” value of the first is lower: 1 A450 for the first, 1.12 A450 for the second.

B7 was tested, and the “A450 (13 nM Ab)” value was 1.18 A450.

Each binder was assayed against T7, cynomolgus monkey IL-21R expressed on cells (cynomolgus monkey, UniProt G7Q0S8 41-559) (assay: cell ELISA, CHO cells).
T7 construct: whole, on cells
Protocol: as §3

Going from B1 to B2, the “A450 (13 nM Ab)” value rises from 1.3 A450 to 1.33 A450.

Compared with B3, B4 is higher in “A450 (13 nM Ab)” value: 1.28 A450 for the first, 1.42 A450 for the second.

Going from B5 to B6, the “A450 (13 nM Ab)” value falls from 1.46 A450 to 1.35 A450.

For B7, the “A450 (13 nM Ab)” value was 1.34 A450.

The binders below were run against T2, human gamma (γ) common chain expressed … (assay: cell ELISA, CHO cells).
Protocol: as §3

Going from B1 to B2, the “A450 (13 nM Ab)” value falls from 0.108 A450 to 0.107 A450.

First: B3
Second: B6
The “A450 (13 nM Ab)” value of the first is higher: 0.137 A450 for the first, 0.111 A450 for the second.

B7 was tested, and the “A450 (13 nM Ab)” value was 0.108 A450.

What follows are binders tested against T5, human IL-21R expressed on cells (assay: cell-based or functional assay).

B1 and B2 are within 1.5-fold of each other in “Human IL-21R-BaF3 Proliferation IC50” value: 770 pM for the first, 1140 pM for the second.

B3 and B4 are within 1.5-fold of each other in “Human IL-21R-BaF3 Proliferation IC50” value: 820 pM for the first, 560 pM for the second.

Going from B5 to B6, the “Human IL-21R-BaF3 Proliferation IC50” value rises from 540 pM to 970 pM (1.8-fold).

B7 was tested, and the “Human IL-21R-BaF3 Proliferation IC50” value was 980 pM.

B1 and B2 are within 1.5-fold of each other in “Human IL-21R-TF1 Proliferation IC50” value: 3840 pM for the first, 3340 pM for the second.

B3 and B4 are within 1.5-fold of each other in “Human IL-21R-TF1 Proliferation IC50” value: 3360 pM for the first, 2280 pM for the second.

Going from B5 to B6, the “Human IL-21R-TF1 Proliferation IC50” value rises from 2410 pM to 3800 pM (1.6-fold).

With B7 the “Human IL-21R-TF1 Proliferation IC50” value was 4000 pM.

What follows are binders tested against murine IL-21R expressed on cells (murine, UniProt Q9JHX3 20-529) (assay: cell-based or functional assay).
Sequence of murine IL-21R expressed on cells (Q9JHX3 20-529 limits assumed): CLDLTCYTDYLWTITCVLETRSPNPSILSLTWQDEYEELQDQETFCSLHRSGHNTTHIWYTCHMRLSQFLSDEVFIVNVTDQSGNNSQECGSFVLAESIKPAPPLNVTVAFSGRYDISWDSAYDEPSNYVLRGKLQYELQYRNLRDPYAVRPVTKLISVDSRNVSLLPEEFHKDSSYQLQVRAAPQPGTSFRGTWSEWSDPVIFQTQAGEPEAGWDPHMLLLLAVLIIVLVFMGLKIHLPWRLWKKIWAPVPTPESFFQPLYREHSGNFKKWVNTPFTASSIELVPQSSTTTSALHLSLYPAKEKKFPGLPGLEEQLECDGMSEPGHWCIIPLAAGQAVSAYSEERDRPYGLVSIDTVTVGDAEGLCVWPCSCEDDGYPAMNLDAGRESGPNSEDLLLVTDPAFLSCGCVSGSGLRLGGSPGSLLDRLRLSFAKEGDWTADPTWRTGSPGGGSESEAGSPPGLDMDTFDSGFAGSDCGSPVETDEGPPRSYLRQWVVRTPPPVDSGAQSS

First: B1
Second: B2
The “Murine IL-21R-BaF3 Proliferation IC50” value of the first is 6-fold lower: 70 pM for the first, 421 pM for the second.

B3 and B4 are within 1.5-fold of each other in “Murine IL-21R-BaF3 Proliferation IC50” value: 30 pM for the first, 40 pM for the second.

Going from B5 to B6, the “Murine IL-21R-BaF3 Proliferation IC50” value falls from 304 pM to 80 pM (3.8-fold).

B7 was tested, and the “Murine IL-21R-BaF3 Proliferation IC50” value was 79 pM.

What follows are binders tested against T6, rat IL-21R expressed on cells (assay: cell-based ELISA on CHO cells transiently expressing rat IL-21R; HRP anti-human IgG, A450).
Protocol: (§4) FIG. 6(a-l) depicts the binding of 21 anti-IL-21R IgGs to CHO cells transiently expressing human IL-21R (FIGS. 6a-c), rat IL-21R (FIGS. 6d-f), cynomolgus monkey IL-21R (FIGS. 6g-i), and human gamma common chain (FIGS. 6j-1). CHO cells were transiently transfected with IL-21R or the control gamma common chain, and binding was detected with HRP-conjugated anti-human IgG in a cell-based ELISA.
as §3

First: B1
Second: B2
The “EC50 (read off the curve)” value of the first is 2.2-fold lower: about 900 pM for the first, about 2000 pM for the second.

B3 and B4 are within 1.5-fold of each other in “EC50 (read off the curve)” value: about 1000 pM for the first, about 800 pM for the second.

B5 and B6 are within 1.5-fold of each other in “EC50 (read off the curve)” value: about 700 pM for the first, about 800 pM for the second.

With B7 the “EC50 (read off the curve)” value was about 1000 pM.

What follows are binders tested against T5, human IL-21R expressed on cells (assay: cell-based ELISA on CHO cells transiently expressing human IL-21R; HRP anti-human IgG, A450).
Protocol: as §4, §3

First: B1
Second: B2
The “EC50 (read off the curve)” value of the first is 2-fold lower: about 500 pM for the first, about 1000 pM for the second.

B3 and B5 are within 1.5-fold of each other in “EC50 (read off the curve)” value: about 700 pM for the first, about 500 pM for the second.

In the case of B6, the “EC50 (read off the curve)” value is reported as about 500 pM.

These binders were tested against T7, cynomolgus monkey IL-21R expressed on … (assay: cell-based ELISA on CHO cells transiently expressing cynomolgus monkey IL-21R; HRP anti-human IgG, A450).
Protocol: as §4, §3

B1 and B2 are within 1.5-fold of each other in “EC50 (read off the curve)” value: about 500 pM for the first, about 600 pM for the second.

First: B3
Second: B5
The “EC50 (read off the curve)” value of the first is 4-fold higher: about 2000 pM for the first, about 500 pM for the second.

Compared with B6, B7 is 4-fold higher in “EC50 (read off the curve)” value: about 500 pM for the first, about 2000 pM for the second.

These binders were tested against T2, human gamma (γ) common chain expressed … (assay: cell-based ELISA on CHO cells transiently expressing human gamma common chain; HRP anti-human IgG, A450).
Protocol: as §4, §3

B1: no binding (tested: 40 nM).
B2: no binding (tested: 40 nM).
B3: no binding (tested: 40 nM).
B6: no binding (tested: 40 nM).
B7: no binding (tested: 40 nM).
